Experimental data from paper PMC7335050 (2020).
Blank lines part the entries; values can stand above or below the binder they belong to.

Molecular target: T1, BAKΔTM (human, UniProt Q16611 1-186)
T1 chain: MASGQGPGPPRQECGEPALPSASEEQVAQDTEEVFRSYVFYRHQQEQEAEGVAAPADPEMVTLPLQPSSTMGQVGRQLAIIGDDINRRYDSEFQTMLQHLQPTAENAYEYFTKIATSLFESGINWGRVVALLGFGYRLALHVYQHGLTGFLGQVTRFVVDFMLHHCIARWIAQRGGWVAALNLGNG
Experiment: SPR

Kd: > 10 µM
B1: BIK BH3 peptide (peptide)
chain: MEGSDALALRLACIGDEMDVSLRAPR

Kd: > 10 µM
B2: BAD BH3 peptide (peptide)
chain: NLWAAQRYGRELRRMSDEFVDSFKK
